From PMC2045677, “Thyroid hormone receptor orthologues from invertebrate species with emphasis on Schistosoma mansoni”

T1: SmTRα (Schistosoma mansoni, UniProt Q2TUU7 1-1115)
T1 sequence: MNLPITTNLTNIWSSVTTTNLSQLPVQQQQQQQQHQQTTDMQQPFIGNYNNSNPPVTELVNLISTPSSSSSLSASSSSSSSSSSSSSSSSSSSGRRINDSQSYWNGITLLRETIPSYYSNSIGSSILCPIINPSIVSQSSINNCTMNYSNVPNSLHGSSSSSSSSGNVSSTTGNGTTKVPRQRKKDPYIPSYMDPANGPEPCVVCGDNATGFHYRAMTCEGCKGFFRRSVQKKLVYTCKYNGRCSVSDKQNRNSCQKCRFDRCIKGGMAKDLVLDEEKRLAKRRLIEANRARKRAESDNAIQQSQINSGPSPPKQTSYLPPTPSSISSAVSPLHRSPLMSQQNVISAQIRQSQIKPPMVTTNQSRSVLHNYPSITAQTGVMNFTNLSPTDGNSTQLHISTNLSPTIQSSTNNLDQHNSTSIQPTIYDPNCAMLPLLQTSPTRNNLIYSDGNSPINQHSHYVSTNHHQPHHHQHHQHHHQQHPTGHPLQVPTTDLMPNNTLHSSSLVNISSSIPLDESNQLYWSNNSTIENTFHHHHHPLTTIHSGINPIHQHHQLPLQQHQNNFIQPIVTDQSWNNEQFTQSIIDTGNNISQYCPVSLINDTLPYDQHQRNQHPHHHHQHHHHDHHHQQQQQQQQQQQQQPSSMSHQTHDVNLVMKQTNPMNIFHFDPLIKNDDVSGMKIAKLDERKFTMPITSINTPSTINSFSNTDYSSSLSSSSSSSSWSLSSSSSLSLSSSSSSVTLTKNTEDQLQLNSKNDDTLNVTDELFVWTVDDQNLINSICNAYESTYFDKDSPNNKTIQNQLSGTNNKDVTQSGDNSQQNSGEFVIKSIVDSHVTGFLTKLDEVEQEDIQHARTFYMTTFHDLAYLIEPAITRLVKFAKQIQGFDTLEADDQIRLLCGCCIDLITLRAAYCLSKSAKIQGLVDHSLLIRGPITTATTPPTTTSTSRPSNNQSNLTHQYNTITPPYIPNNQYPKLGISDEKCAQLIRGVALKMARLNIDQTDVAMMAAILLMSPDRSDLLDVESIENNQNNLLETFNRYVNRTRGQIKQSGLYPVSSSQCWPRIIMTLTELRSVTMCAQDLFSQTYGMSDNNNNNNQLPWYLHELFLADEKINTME

B1: Pal0 (dsDNA)
DNA 1: CGCAAGGTCATGACCTCG
DNA 2: CGAGGTCATGACCTTGCG
B2: DR2 (dsDNA)
DNA 1: CCGTAAGGTCACAAGGTCACTCG
DNA 2: CGAGTGACCTTGTGACCTTACGG
B3: DR0 (dsDNA)
DNA 1: CCGTAAGGTCAAGGTCACTCG
DNA 2: CGAGTGACCTTGACCTTACGG
B4: DR1 (dsDNA)
DNA 1: CCGTAAGGTCACAGGTCACTCG
DNA 2: CGAGTGACCTGTGACCTTACGG
B5: DR5 (dsDNA)
DNA 1: CCGTAAGGTCACCAGGAGGTCACTCG
DNA 2: CGAGTGACCTCCTGGTGACCTTACGG
B6: half-site (dsDNA)
DNA 1: GTACCGTAAGGTCACTCGCGT
DNA 2: ACGCGAGTGACCTTACGGTAC
B7: DR4 (dsDNA)
DNA 1: CCGTAAGGTCACAGGAGGTCACTCG
DNA 2: CGAGTGACCTCCTGTGACCTTACGG
B8: DR3 (dsDNA)
DNA 1: CCGTAAGGTCACAGAGGTCACTCG
DNA 2: CGAGTGACCTCTGTGACCTTACGG

target: SmTRα(Gln182-Ala288) (Schistosoma mansoni, UniProt Q2TUU7 182-288); assay: EMSA; monomer or homodimer; cold self competes; EMSA on ice 40 min, 15 µl with 3 µl 5x buffer (5x: 20% glycerol, 5 mM MgCl2, 2.5 mM EDTA, 2.5 mM DTT, 250 mM NaCl, 50 mM Tris-HCl pH 7.5, 0.25 mg/ml poly(dI-dC)); 6% native gel, 1x TBE, 4°C; settings: protein: ivt; tags: none stated (pCITE-4a); label: 32P; blunt

Binder | binding result
B1 | binds
B2 | binds
B3 | binds
B4 | binds
B5 | binds
B6 | binds
B7 | binds
B8 | binds

target: T1, SmTRα; assay: EMSA; monomer or homodimer; EMSA on ice 40 min, 15 µl with 3 µl 5x buffer (5x: 20% glycerol, 5 mM MgCl2, 2.5 mM EDTA, 2.5 mM DTT, 250 mM NaCl, 50 mM Tris-HCl pH 7.5, 0.25 mg/ml poly(dI-dC)); 6% native gel, 1x TBE, 4°C; settings: protein: ivt; tags: none stated (pCITE-4a); label: 32P; blunt

Binder | binding result
B1 | binds
B2 | binds
B3 | binds
B4 | binds
B5 | binds
B6 | binds
B7 | binds
B8 | binds
